The values below come from the supplement of paper PMC10567573.

B1: TNNI2 (parent)
chain: DWRKNIEEKSGMEGRKKMFESES
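Note: lentivirally expressed fusions sorted by FACS into six bins by GFP to DsRed ratio, PSI derived from sequencing read proportions per bin multiplied by bin number.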

In this data set the parent is B1. Kind of data set: protein stability index of a GFP-peptide fusion (GPS, HEK-293T) (PSI 1-6); higher = more stable. To be noted: c terminus: native.
For the variant DWRKNIEEKCGMEGRKKMFESES, the protein stability index is 1.81.
Turning to DWRKNIEEKAGMEGRKKMFESES, the protein stability index was determined as 1.7.
Turning to DWRKNIEEKEGMEGRKKMFESES, the protein stability index is 2.28.
On to DWRKNIEEKKGMEGRKKMFESES, for which the protein stability index amounted to 2.18.
For DWRKNIEEKGGMEGRKKMFESES, the protein stability index worked out at 2.42.
The figure for DWRKNIEEKYGMEGRKKMFESES is 2.82; for DWRKNIEEKHGMEGRKKMFESES it is 2.29; for DWRKNIEEKIGMEGRKKMFESES it is 2.89.
With DWRKNIEEKLGMEGRKKMFESES the figure was 1.58; with DWRKNIEEKPGMEGRKKMFESES, 2.52; with DWRKNIEEKNGMEGRKKMFESES, 2.54.
The figure for DWRKNIEEKQGMEGRKKMFESES is 2.97; for DWRKNIEEKRGMEGRKKMFESES it is 2.55.
Take DWRKNIEEKVGMEGRKKMFESES: the protein stability index amounted to 1.02.
As to DWRKNIEEKMGMEGRKKMFESES, the protein stability index is 2.16.
The figure for DWRKNIEEKTGMEGRKKMFESES is 2.47; for IWRKNIEEKSGMEGRKKMFESES it is 2.63.
Turning to QWRKNIEEKSGMEGRKKMFESES, the protein stability index is 2.65.
The figure for GWRKNIEEKSGMEGRKKMFESES is 2.28; for MWRKNIEEKSGMEGRKKMFESES it is 1.57.
With KWRKNIEEKSGMEGRKKMFESES the figure was 2.01; with AWRKNIEEKSGMEGRKKMFESES, 2.91.
The figure for PWRKNIEEKSGMEGRKKMFESES is 2.57; for SWRKNIEEKSGMEGRKKMFESES it is 1.79; for NWRKNIEEKSGMEGRKKMFESES it is 2.79.
Turning to RWRKNIEEKSGMEGRKKMFESES, the protein stability index came to 2.79.
The figure for FWRKNIEEKSGMEGRKKMFESES is 1.9; for LWRKNIEEKSGMEGRKKMFESES it is 1.9.
TWRKNIEEKSGMEGRKKMFESES: the protein stability index came out at 2.37.
Regarding CWRKNIEEKSGMEGRKKMFESES, the protein stability index is 1.75.
Turning to WWRKNIEEKSGMEGRKKMFESES, the protein stability index is 3.07.
Take VWRKNIEEKSGMEGRKKMFESES: the protein stability index came out at 2.37.
Take HWRKNIEEKSGMEGRKKMFESES: the protein stability index is 2.27.
The figure for YWRKNIEEKSGMEGRKKMFESES is 2.24; for DWRNNIEEKSGMEGRKKMFESES it is 3.23; for DWRWNIEEKSGMEGRKKMFESES it is 2.13.
The figure for DWRENIEEKSGMEGRKKMFESES is 2.59; for DWRMNIEEKSGMEGRKKMFESES it is 3.39; for DWRVNIEEKSGMEGRKKMFESES it is 3.15.
For the variant DWRFNIEEKSGMEGRKKMFESES, the protein stability index worked out at 2.37.
On to DWRPNIEEKSGMEGRKKMFESES, for which the protein stability index was 2.61.
The figure for DWRINIEEKSGMEGRKKMFESES is 2.13.
With DWRCNIEEKSGMEGRKKMFESES the figure was 2.32; with DWRHNIEEKSGMEGRKKMFESES, 2.62.
Consider DWRDNIEEKSGMEGRKKMFESES, for which the protein stability index stood at 3.23.
With DWRYNIEEKSGMEGRKKMFESES the figure was 2.56; with DWRTNIEEKSGMEGRKKMFESES, 2.98.
With DWRQNIEEKSGMEGRKKMFESES the figure was 3.21.
The figure for DWRGNIEEKSGMEGRKKMFESES is 3.03.
For the variant DWRSNIEEKSGMEGRKKMFESES, the protein stability index was found to be 3.03.
Turning to DWRLNIEEKSGMEGRKKMFESES, the protein stability index is 2.82.
Turning to DWRANIEEKSGMEGRKKMFESES, the protein stability index stood at 3.61.
With DWRKNQEEKSGMEGRKKMFESES the figure was 3.26; with DWRKNCEEKSGMEGRKKMFESES, 2.54; with DWRKNYEEKSGMEGRKKMFESES, 1.88.
On to DWRKNSEEKSGMEGRKKMFESES, for which the protein stability index was 2.54.
With DWRKNNEEKSGMEGRKKMFESES the figure was 2.54; with DWRKNTEEKSGMEGRKKMFESES, 3.26; with DWRKNREEKSGMEGRKKMFESES, 2.09.
Consider DWRKNPEEKSGMEGRKKMFESES, for which the protein stability index was 3.72.
The figure for DWRKNAEEKSGMEGRKKMFESES is 2.59.
The figure for DWRKNHEEKSGMEGRKKMFESES is 2.12; for DWRKNGEEKSGMEGRKKMFESES it is 2.41; for DWRKNMEEKSGMEGRKKMFESES it is 2.52.
The figure for DWRKNKEEKSGMEGRKKMFESES is 2.23; for DWRKNVEEKSGMEGRKKMFESES it is 2.09.
As for DWRKNIFEKSGMEGRKKMFESES, the protein stability index is 1.77.
The figure for DWRKNIDEKSGMEGRKKMFESES is 3; for DWRKNINEKSGMEGRKKMFESES it is 2.79; for DWRKNIGEKSGMEGRKKMFESES it is 1.83.
In the case of DWRKNIMEKSGMEGRKKMFESES, the protein stability index was found to be 2.25.
As to DWRKNIREKSGMEGRKKMFESES, the protein stability index came out at 2.8.
The figure for DWRKNILEKSGMEGRKKMFESES is 2.17.
As to DWRKNIKEKSGMEGRKKMFESES, the protein stability index was determined as 2.62.
Regarding DWRKNIAEKSGMEGRKKMFESES, the protein stability index was found to be 2.16.
The figure for DWRKNIHEKSGMEGRKKMFESES is 1.84.
With DWRKNISEKSGMEGRKKMFESES the figure was 1.76.
Turning to DWRKNITEKSGMEGRKKMFESES, the protein stability index came out at 2.82.
Turning to DWRKNIWEKSGMEGRKKMFESES, the protein stability index amounted to 2.01.
With DWRKNIVEKSGMEGRKKMFESES the figure was 2.26; with DWRKNIYEKSGMEGRKKMFESES, 2.12.
The figure for DWRKNIPEKSGMEGRKKMFESES is 2.85.
As for DWRKNIQEKSGMEGRKKMFESES, the protein stability index turned out to be 2.56.
For DWRKNICEKSGMEGRKKMFESES, the protein stability index came out at 2.01.
Consider DWRKNIIEKSGMEGRKKMFESES, for which the protein stability index is 1.75.
DWRKVIEEKSGMEGRKKMFESES: the protein stability index was found to be 2.04.
The figure for DWRKFIEEKSGMEGRKKMFESES is 2.43; for DWRKPIEEKSGMEGRKKMFESES it is 3.97; for DWRKSIEEKSGMEGRKKMFESES it is 2.31.
With DWRKGIEEKSGMEGRKKMFESES the figure was 2.5; with DWRKMIEEKSGMEGRKKMFESES, 2.37; with DWRKTIEEKSGMEGRKKMFESES, 3.41.
Take DWRKYIEEKSGMEGRKKMFESES: the protein stability index was determined as 1.62.
Regarding DWRKRIEEKSGMEGRKKMFESES, the protein stability index was 2.95.
Turning to DWRKDIEEKSGMEGRKKMFESES, the protein stability index amounted to 1.94.
With DWRKAIEEKSGMEGRKKMFESES, the protein stability index was determined as 3.79.
The figure for DWRKIIEEKSGMEGRKKMFESES is 2.32.
